Experimental data taken from article PMC3662962.

Substrate: O=[N+]([O-])c1ccc(OP(=O)(O)O)cc1
Experiment: purified protein
Details: pH 8.0; 37.0 °C

B1: Rv1364c (Mycobacterium tuberculosis H37Rv) (protein)
chain: MAAEMDWDKTVGAAEDVRRIFEHIPAILVGLEGPDHRFVAVNAAYRGFSPLLDTVGQPAREVYPELEGQQIYEMLDRVYQTGEPQSGSEWRLQTDYDGSGVEERYFDFVVTPRRRADGSIEGVQLIVDDVTSRVRARQAAEARVEELSERYRNVRDSATVMQQALLAASVPVVPGADIAAEYLVAAEDTAAGGDWFDALALGDRLVLVVGDVVGHGVEAAAVMSQLRTALRMQISAGYTVVEALEAVDRFHKQVPGSKSATMCVGSLDFTSGEFQYCTAGHPPPLLVTADASARYVEPTGAGPLGSGTGFPVRSEVLNIGDAILFYTDGLIERPGRPLEASTAEFADLAASIASGSGGFVLDAPARPIDRLCSDTLELLLRSTGYNDDVTLLAMQRRAPTPPLHITLDATINAARTVRAQLREWLAEIGADHSDIADIVHAISEFVENAVEHGYATDVSKGIVVAAALAGDGNVRASVIDRGQWKDHRDGARGRGRGLAMAEALVSEARIMHGAGGTTATLTHRLSRPARFVTDTMVRRAAFQQTIDSEFVSLVESGRIVVRGDVDSTTAATLDRQIAVESRSGIAPVTIDLSAVTHLGSAGVGALAAACDRARKQGTECVLVAPPGSPAHHVLSLVQLPVVGADTEDIFAQE
Work on B1 yielded a Km of 3.61 ± 0.58 mM and a Vmax of 0.09 µmol/min/mg.
